This note sets out measurements from patent US20220185898A1 (Alector, published 2022).

Where a chain is given by its changes, count along the chain named.

Assay [1] concerns the target T1, human Sortilin expressed on 293 / HEK293T cells (human, UniProt Q99523 78-830).
T1 construct: full-length recombinant human Sortilin; also called hSort; SORT1
The assay is described as follows: FACS, 293 cells.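 Further: antibodies at 10 µg/ml bound to cells for 1 h on ice, detected with PE-labelled anti-human secondary antibody by flow cytometry, reported as mean fluorescence intensity.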 On the technique in general: A flow cytometer gives signals particle by particle.

The target in assay [2] is T2, mouse Sortilin expressed on 293 / HEK293T cells (mouse, UniProt Q6PHU5 74-825).
T2 construct: full-length recombinant mouse Sortilin; also called mSort; msSort
The assay is described as follows: FACS, 293 cells.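 Further: antibodies at 10 µg/ml bound to cells for 1 h on ice, detected with PE-labelled anti-human secondary antibody by flow cytometry, reported as mean fluorescence intensity.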

The target of assay [3] is T3, mouse Sortilin Fc fusion protein (mouse; human, UniProt Q6PHU5 74-754).
T3 construct: whole entry named; also called mSort-Fc
The experiment in a line: ForteBio, avid.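 Further: whole IgG captured on AHQ sensors, then contacted with Sortilin Fc fusion antigen at 100 nM, followed by an off-rate phase in buffer.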 For orientation: Biolayer interferometry detects binding as a change in optical thickness at a sensor tip.
Experimental: (§1) The affinity for the Sortilin antibodies was determined by measuring their KD by ForteBio. […] Briefly, ForteBio affinity measurements were performed by loading IgGs on-line onto AHQ sensors. Sensors were equilibrated off-line in assay buffer for 30 min and then monitored on-line for 60 seconds for baseline establishment. For avid binding measurement, sensors with loaded IgGs were exposed to 100 nM antigen (human or mouse Sortilin Fc fusion) for 3, afterwards they were transferred to assay buffer for 3 min for off-rate measurement.
(§2) The binding affinity of each anti-Sortilin antibody was determined by measuring their KD by ForteBio or MSD-SET at room temperature. […] Briefly, ForteBio affinity measurements were performed by loading IgGs on-line onto AHQ sensors. Sensors were equilibrated off-line in assay buffer for 30 min and then monitored on-line for 60 seconds for baseline establishment. Sensors with loaded IgGs were exposed to 100 nM antigen for 5 minutes, then transferred to assay buffer for 5 min for off-rate measurement. Kinetics were analyzed using the 1:1 binding model.

Assay [4] has as its target T4, human Sortilin Fc fusion protein (human, UniProt Q99523 78-755).
T4 construct: whole entry named; also called hSort-Fc
The experiment in a line: ForteBio, avid.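 Further: whole IgG captured on AHQ sensors, then contacted with Sortilin Fc fusion antigen at 100 nM, followed by an off-rate phase in buffer.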
Experimental: as §1, §2

Assay [5] has as its target T5, biotinylated human Sortilin monomer (human, UniProt Q99523 78-755, limits assumed, biotinylated (Sulfo-NHS-biotin)).
T5 construct: monomer cut from the Fc fusion with IdeS; used unbiotinylated in solution in some formats; also called Bt-hSort; b-H Sort
The assay is described as follows: ForteBio, avidity, biotinylated human Sortilin on sensor.

Assay [6] deals with T5, biotinylated human Sortilin monomer. The assay is described as follows: MSD-SET, Fab; MSD, Fab, monovalent biotinylated human Sortilin.
Experimental: (§3) Antibodies (20 nM in PBS) were coated onto standard bind MSD-ECL plates overnight at 4° C. or at room temperature for 30 min. Plates were then blocked with 1% BSA for 30 min with shaking at 700 rpm, followed by three washes with wash buffer (PB SF+0.05% Tween 20). SET samples were applied and incubated on the plates for 150 s with shaking at 700 rpm followed by one wash. Antigen captured on a plate was detected with 250 ng/ml sulfotag-labeled streptavidin in PBSF by incubation on the plate for 3 min. The plates were washed three times with wash buffer and then read on the MSD Sector Imager 2400 instrument using 1× Read Buffer T with surfactant. The percent free antigen was plotted as a function of titrated antibody in Prism and fit to a quadratic equation to extract the KD. To improve throughput, liquid handling robots were used throughout MSD-SET experiments, including SET sample preparation.
Assay [7] shares this target. The assay is described as follows: ForteBio, Fab.
Experimental: The affinity of the anti-Sortilin antibodies was determined by measuring their KD by ForteBio and MSD. […] Briefly, ForteBio affinity measurements were performed by loading immunoglobulins (IgGs) on-line onto AHQ sensors. Sensors were equilibrated off-line in assay buffer for 30 min and then monitored on-line for 60 seconds for baseline establishment. For avid binding measurement, sensors with loaded IgGs were exposed to 100 nM antigen (human or mouse Sortilin Fc fusion) for 3 min, afterwards they were transferred to assay buffer for 3 min for off-rate measurement. […] Monovalent binding measurements were obtained by loading human or mouse Sortilin Fc fusion antigens to AHQ sensor and followed by exposure to −100 nM Sortilin antibody Fab. […] Kinetics data were fit using a 1:1 binding model in the data analysis software provided by ForteBio.
In assay [8] the target is T6, biotinylated mouse Sortilin monomer (mouse, UniProt Q6PHU5 74-754, limits assumed, biotinylated).
T6 construct: also called Bt-msSort
The experiment in a line: MSD-SET, Fab.
Experimental: as §3

The target of assay [9] is T7, recombinant mouse Sortilin (R&D Systems) (mouse, UniProt Q6PHU5 74-754, limits assumed).
T7 construct: bought; also called mouse SORT1
The experiment in a line: ELISA, biotinylated PGRN on immobilized Sortilin. (In general: ELISA stands for enzyme-linked immunosorbent assay.)

B1: S-14 (antibody, V domains shown)
VH: QVQLVQSGAEVKKPGASVKVSCKASGYTFTSYYMSWVRQAPGQGLEWMGIINPSGGSTSYAQKFQGRVTMTRDTSTSTVYMELSSLRSEDTAVYYCARDPSGIAAAGPASRYYYGMDVWGQGTTVTVSS
VL: DIQMTQSPSSLSASVGDRVTITCRASQSISSYLNWYQQKPGKAPKLLIYGASSLQSGVPSRFSGSGSGTDFTLTISSLQPEDFATYYCQQHYVGPFTFGGGTKVEIK
notes: IgG
As for B1, the results for the MFI in assay [1] and in assay [2] were 8010 and 16500, respectively. In addition, the Kd in assay [3] was found to be 2.74 nM; in assay [4] it was 5.74 nM; in assay [5] it was 0.8 nM.

B2: S-2-1 Fab (Fab, V domains shown)
VH: QVQLVQSGAEVKKPGASVKVSCKASGYTFGAYYMHWVRQAPGQGLEWMGWINPNSGFTRYAQKFQGRVTMTRDTSISTAYMELSRLRSDDTAVYYCARGKRSSGWYEGYGMDVWGQGTTVTVSS
VL: B1 VL with G50A, H91S, Y92D, G94S, F96I
notes: Fab by papain digestion of the IgG
In the case of B2, the Kd came out at 0.029 nM in assay [6], 0.614 nM in assay [7] and 0.73 nM in assay [8].

B3: recombinant mouse Progranulin (Adipogen) (ligand, UniProt P28798 18-589, looked up)
chain: TQCPDGQFCPVACCLDQGGANYSCCNPLLDTWPRITSHHLDGSCQTHGHCPAGYSCLLTVSGTSSCCPFSKGVSCGDGYHCCPQGFHCSADGKSCFQMSDNPLGAVQCPGSQFECPDSATCCIMVDGSWGCCPMPQASCCEDRVHCCPHGASCDLVHTRCVSPTGTHTLLKKFPAQKTNRAVSLPFSVVCPDAKTQCPDDSTCCELPTGKYGCCPMPNAICCSDHLHCCPQDTVCDLIQSKCLSKNYTTDLLTKLPGYPVKEVKCDMEVSCPEGYTCCRLNTGAWGCCPFAKAVCCEDHIHCCPAGFQCHTEKGTCEMGILQVPWMKKVIAPLRLPDPQILKSDTPCDDFTRCPTNNTCCKLNSGDWGCCPIPEAVCCSDNQHCCPQGFTCLAQGYCQKGDTMVAGLEKIPARQTTPLQIGDIGCDQHTSCPVGQTCCPSLKGSWACCQLPHAVCCEDRQHCCPAGYTCNVKARTCEKDVDFIQPPVLLTLGPKVGNVECGEGHFCHDNQTCCKDSAGVWACCPYLKGVCCRDGRHCCPGGFHCSARGTKCLRKKIPRWDMFLRDPVPRPLL
modifications: biotinylated
notes: also called mPGRN; Bio-mPGRN
Take B3: the Kd in [9] is 40 nM.
